From patent publication US11813280B2, “Reducing beta-catenin and IDO expression to potentiate immunotherapy” (Dicerna Pharmaceuticals, Inc., priority 2018, dated 2023)
Entries after “also recorded” stand apart in the source; their conditions may differ.

How the values were obtained:
[1] = target: IDO1 (Homo sapiens, UniProt P14902); details: cited from earlier work
[2] = test system: 4T1 tumors; assay: 4T1 tumor growth study; type: in vivo, Balb/C mice; details: for anti-tumor efficacy (tumor volume): IDOi orally 100 mg/kg per dose twice daily days 4 and 6, BCAT1 iv 3 mg/kg days 5 and 6, anti-PD-1 antibody ip 5 mg/kg days 7 and 8, single, double or triple agents
Protocol: (§1) 6-8-week-old immunocompetent mice (C57BL/6 or Balb/C) were injected subcutaneously with 1.5×10^6B16F10 or 1.5×10^6 4T1 tumor cells under the right shoulder. Tumor volume was measured every 2-3 days a week to monitor tumor growth. Dosing was initiated when the tumors reached about 150-200 mm^3. […] BCAT1 formulated LNP or Placebo (scrambled CTNNB1 dsRNAi) formulated LNP was given intravenously via lateral tail vein at a total volume of 10 ml/kg. Immunotherapy treatments (anti-PD-1 antibody) were given intraperitoneally at a volume of 10 ml/kg.
(§2) Mouse cell lines B16F10 and 4T1 cells were obtained from ATCC (Manassas, Va.) and grown in RPMI/DMEM medium supplemented with 10% FBS. B16F10 cells is a murine melanoma cell line with no Wnt activation or IDO1 activation. 4T1 is a murine breast cell line with Wnt activation and constitutive activation of IDO1.
In another study, 4T1 tumor cells were implanted in Balb/C mice and 4 days post-implant, the mice were randomized into two groups and treated with placebo or BCAT1. This dosing cycle was then repeated on days 9 and 10. Tumor growth was monitored by measuring the tumor sizes over the course of the treatment period. […] FIG. 1C.
(§3) Tumors were collected 48 hours after the last dose and were subjected to immunohistochemistry to look at β-catenin, CD8 and IDO1 levels. […] FIG. 3B. FIG. 3B. […] Tumor growth was monitored by measuring the tumor sizes over the course of the treatment period. […] FIG. 3C.

[3] = test system: B16F10 tumors; assay: B16F10 tumor growth study; type: in vivo, C57BL/6 mice
Protocol: as §1, §2
In a similar study, B16F10 tumor cells were implanted in C57BL/6 mice and at day 5 post-implant, the mice were randomized into two groups and treated with placebo or BCAT1. This dosing cycle was then repeated on days 11 and 12. Tumor growth was monitored by measuring the tumor sizes over the course of the treatment period. […] FIG. 6C.
Tumor growth was monitored by measuring the tumor sizes over the course of the treatment period. […] FIG. 8C. […]

[4] = test system: 4T1 tumors; assay: Immunohistochemistry of 4T1 tumors for β-catenin, CD8 and IDO1; type: in vivo, Balb/C mice; details: IDOi orally twice daily 100 mg/kg per dose days 6 and 8, tumors 48 hours after last dose, vs vehicle
[5] = test system: MMTV-Wnt tumors; assay: Immunohistochemistry of MMTV-Wnt tumors for β-catenin, CD8 and IDO1; type: in vivo, mice; details: tumors 24 hours after last dose
Protocol: (§4) In the MMTV-Wnt mouse model, mammary gland specific overexpression of Wnt1 with MMTV-LTR leads to spontaneous breast tumors with activated Wnt/β-catenin signaling. MMTV-Wnt mammary tumors spontaneously grow in mice in 3-6 months from the time of birth with Wnt pathway activation.
To see the effect of β-catenin inhibition on T cell infiltration and IDO1 levels in spontaneous tumors, the MMTV-Wnt1 model was used. The tumors were collected 24 hours after the last dose and subjected to immunohistochemistry to determine β-catenin, CD8, and IDO1 levels.
Tumors were collected 24 hours after the last dose and subjected to immunohistochemistry to determine β-catenin, CD8 and IDO1 levels.

[6] = test system: melanoma; details: epacadostat in combination with the PD-1 inhibitors pembrolizumab and nivolumab; Phase I/II; cited from earlier work
[7] = test system: B16F10 tumors; assay: Immunohistochemistry of B16F10 tumors for β-catenin, CD8 and IDO1; type: in vivo, C57BL/6 mice; details: IDOi orally twice daily 100 mg/kg per dose days 7 and 9, tumors 48 hours after last dose, vs vehicle
[8] = test system: metastatic or recurrent squamous cell carcinoma of the head and neck, advanced urothelial cell carcinoma, and advanced renal cell carcinoma; details: epacadostat combination; cited from earlier work
[9] = Siu et al., AACR abstract CT116, 2017; cited from earlier work
[10] = target: T1, IDO2 (Homo sapiens, UniProt Q6ZQW0); details: Pendergast et al., Cancer Research, 2017; cited from earlier work
T1 sequence (Q6ZQW0 1-407): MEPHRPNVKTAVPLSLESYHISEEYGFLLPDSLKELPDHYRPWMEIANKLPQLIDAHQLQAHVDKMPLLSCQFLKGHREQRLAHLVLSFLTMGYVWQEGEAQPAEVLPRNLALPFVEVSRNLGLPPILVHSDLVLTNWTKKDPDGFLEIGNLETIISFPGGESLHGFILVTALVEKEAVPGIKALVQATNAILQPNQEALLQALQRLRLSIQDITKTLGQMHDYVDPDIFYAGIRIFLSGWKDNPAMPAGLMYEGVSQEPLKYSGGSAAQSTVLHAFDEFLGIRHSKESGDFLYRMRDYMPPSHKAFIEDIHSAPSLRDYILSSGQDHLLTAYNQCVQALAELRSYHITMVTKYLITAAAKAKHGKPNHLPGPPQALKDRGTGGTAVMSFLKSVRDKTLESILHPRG

[11] = test system: advanced melanoma; details: combined with pembrolizumab; Phase II study; cited from earlier work
[12] = test system: B16F10 tumors; assay: Flow cytometry of immune cell infiltrate in B16F10 tumors; type: in vivo, C57BL/6 mice; details: BCAT1 3 mg/kg days 6, 7, 12, 13, tumors 24 hours after last dose
Protocol: A similar study was run to monitor the levels of immune cell infiltrate after two rounds of BCAT1 treatment. B16F10 tumors were treated with PBS, placebo, or BCAT1 at 3 mg/kg on days 6 and 7 post-implant and again on days 12 and 13 post-implant, as shown in FIG. 7A. Tumors were collected 24 hours after the last dose and were subjected to flow cytometry. […] The MDSC cell population was not altered. FIG. 7B.

[13] = test system: 4T1 tumors; assay: Flow cytometry of surface markers in 4T1 tumors; type: in vivo, Balb/C mice; details: BCAT1 3 mg/kg days 6, 7, 12, 13, tumors 24 hours after last dose, vs PBS
Protocol: In another similar study, mice bearing 4T1 tumors were treated with PBS or BCAT1 at 3 mg/kg on days 6 and 7 and days 12 and 13 post-implant, as shown in FIG. 2A. Tumors were collected 24 hours after the last dose and subjected to flow cytometry to measure surface markers on single-cell suspensions prepared from the extracted tumors. […] FIG. 2B. […] FIG. 2B. No effect was observed on the immunosuppressive MDSC cells. FIG. 2B.

[14] = test system: MMTV-Wnt tumors; assay: MMTV-Wnt tumor growth study; type: in vivo, mice
Protocol: as §4
In another study, MMTV-Wnt tumor-bearing mice were treated with BCAT1 at 3 mg/kg on study days 1, 2, 6, and 7 and tumor growth was monitored.

[15] = test system: multiple tumor types; assay: Delivery of LNP formulated BCAT1 to tumors in models; type: in vivo
Source text: The BCAT1 construct was formulated in EnCore lipid nanoparticles (LNP).

[16] = test system: 4T1 tumors; assay: Immunohistochemistry of 4T1 tumors for β-catenin, CD8 and IDO1; type: in vivo, Balb/C mice; details: BCAT1 3 mg/kg days 6, 7, 12, 13 post-implant, tumors 48 hours after last dose, vs placebo
Protocol: as §1, §2
Balb/C mice were implanted with 4T1 tumors. At six days post 4T1 tumor cell implantation, with the average tumor size of 150-200 mm^3, mice were sorted into two groups and were treated with either placebo or BCAT1 at 3 mg/kg on days 6 and 7 and days 12 and 13 post-implant, as shown in FIG. 1A. 48 hours after the last dose, tumors were collected and assayed by immunohistochemistry for β-catenin, CD8 and IDO1 protein levels.
as §3

[17] = test system: B16F10 tumors; assay: Immunohistochemistry of B16F10 tumors for β-catenin, CD8 and IDO1; type: in vivo, C57BL/6 mice; details: BCAT1 3 mg/kg days 6, 7, 12, 13 post-implant, tumors 48 hours after last dose, vs placebo
Protocol: as §1, §2
C57BL/6 mice were implanted with B16F10 tumors. At six days post B16F10 tumor cell implantation, with the average tumor size of 200 mm^3, mice were sorted into two groups and were treated with either placebo or BCAT1 at 3 mg/kg on days 6 and 7 post-implant and again on days 12 and 13 post-implant, as shown in FIG. 6A. 48 hours after the last dose, tumors were collected and assayed by immunohistochemistry for β-catenin, CD8 and IDO1 protein levels. […] FIG. 6B.
Tumors were collected 48 hours after the last dose and were subjected to immunohistochemistry to analyze β-catenin, CD8 and IDO1 levels. […] FIG. 8B.

[18] = IDOi 30 mg/kg per dose twice a day for 3 consecutive days
[19] = BCAT1 5 mg/kg per dose study days 1, 2, 3, 5 mg/kg

IDO1, sequence (P14902 whole entry, species assumed): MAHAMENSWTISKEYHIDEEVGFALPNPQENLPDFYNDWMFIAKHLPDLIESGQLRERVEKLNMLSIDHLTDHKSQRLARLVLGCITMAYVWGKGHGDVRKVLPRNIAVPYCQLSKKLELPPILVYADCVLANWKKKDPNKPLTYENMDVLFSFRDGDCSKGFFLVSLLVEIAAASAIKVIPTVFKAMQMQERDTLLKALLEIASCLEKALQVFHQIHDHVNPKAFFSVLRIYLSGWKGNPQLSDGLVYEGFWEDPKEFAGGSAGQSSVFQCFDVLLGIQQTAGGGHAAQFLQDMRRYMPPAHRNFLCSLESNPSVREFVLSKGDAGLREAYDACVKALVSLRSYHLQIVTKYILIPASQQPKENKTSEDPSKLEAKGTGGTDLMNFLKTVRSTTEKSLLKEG

Molecule: O=C1CC(c2c[nH]c3ccc(F)cc23)C(=O)N1 (centres unmarked) [PF-06840003]
- enzymes targeted / inhibited (IDO1, TDO) [1]: selectively target IDO1

Molecule: NS(=O)(=O)NCCNc1nonc1C(=NO)Nc1ccc(F)c(Br)c1 [IDOi, epacadostat]
- tumor growth as compared to placebo ([2]; IDOi alone twice daily at 100 mg/kg per day on days 6 and 8 post-implant, 100 mg/kg/day): tumor growth inhibition; also recorded: inhibits tumor growth
- anti-tumor efficacy (tumor volume) [2]: modest anti-tumor efficacy
- tumor growth inhibition vs vehicle ([3]; IDOi twice daily 100 mg/kg per dose days 7 and 9, 100 mg/kg): did not result in any significant tumor growth inhibition; also recorded: does not significantly inhibit tumor growth
- CD8 levels / CD8 T-cell infiltration (immunohistochemistry) [4]: only modestly altered; also recorded: increases
- IDO1 levels (immunohistochemistry) [4]: reduced the IDO1 levels almost completely; also recorded: decreases
- β-catenin levels (immunohistochemistry) [4]: only modestly altered; also recorded: decreases
- CD8 levels (immunohistochemistry) [5, 18]: increases
- IDO1 levels (immunohistochemistry) [5, 18]: reduced the IDO1 levels almost completely; also recorded: reduces
- β-catenin levels (immunohistochemistry) [5, 18]: increases
- clinical results in patients with melanoma [6]: positive early results
- CD8 levels / CD8 T-cell infiltration (immunohistochemistry) [7]: increases
- IDO1 levels (immunohistochemistry) [7]: reduced the IDO1 levels almost completely; also recorded: decreases
- β-catenin levels (immunohistochemistry) [7]: decreases
- efficacy in other tumors [8]: shown efficacy

Molecule: C[C@@H](C(=O)Nc1ccc(Cl)cc1)C1CCC(c2ccnc3ccc(F)cc23)CC1 (some centres unmarked) [BMS-986205]
- tolerability in patients with advanced cancers [9]: safely tolerated

Molecule: Cn1cc(C[C@@H](N)C(=O)O)c2ccccc21 [indoximod, 1-methyl-D-tryptophan]
- inhibition of IDO2 [10]: indirectly inhibit IDO2
- efficacy in patients with advanced melanoma [11]: shown efficacy

B1: BCAT1: nucleic acid inhibitor molecule targeting the β-catenin gene; sense strand SEQ ID NO:1, antisense strand SEQ ID NO:2; formulated in EnCore lipid nanoparticles (nucleic acid)
sense: AGAAUACAAAUGAUGUAGAAACAGCC
antisense: UAGCUAUCGTGGCUGUUUCUACAUCAUUUGUAUUCUGC
modifications: formulated in lipid nanoparticles, chemistry not given here
- CD8 T cells, flow cytometry [12]: elevated; also recorded: increases
- LAG-3 checkpoint, flow cytometry [12]: elevated; also recorded: increases
- MDSC cell population, flow cytometry [12]: not altered; also recorded: does not significantly alter
- PD-1 checkpoint, flow cytometry [12]: elevated; also recorded: increases
- Tim-3 checkpoint, flow cytometry [12]: elevated; also recorded: increases
- level of Tregs, flow cytometry ([12]; as compared to PBS): did not significantly change; also recorded: does not significantly alter
- tumor growth inhibition ([2]; BCAT1 alone 3 mg/kg days 4, 5, 9, 10, vs placebo): about 40%
- anti-tumor efficacy (tumor volume) [2]: modest anti-tumor efficacy
- tumor growth as compared to placebo ([2]; two cycles of BCAT1 treatment): inhibits tumor growth
- LAG-3 checkpoint, flow cytometry [13]: significant increases
- MDSC cells, flow cytometry [13]: No effect; also recorded: does not significantly alter
- PD-1 checkpoint, flow cytometry [13]: significant increases
- Regulatory T cells (Tregs), flow cytometry [13]: significantly increased; also recorded: increases
- Tim-3 checkpoint, flow cytometry [13]: significant increases
- cytotoxic T-cells (CD8+), flow cytometry [13]: significant increases
- tumor growth inhibition ([14]; BCAT1 alone 3 mg/kg study days 1, 2, 6, 7): about 50%
- tumor growth as compared to placebo ([14]; two cycles of BCAT1 treatment): inhibits tumor growth
- tumor growth as compared to placebo ([3]; BCAT1 single agent 3 mg/kg days 5, 6, 11, 12): did not significantly inhibit tumor growth; also recorded: does not significantly inhibit tumor growth
- CD8 levels / CD8 T-cell infiltration (immunohistochemistry) [5, 19]: increases
- IDO1 levels (immunohistochemistry) [5, 19]: unchanged; also recorded: does not significantly reduce
- β-catenin levels (immunohistochemistry) [5, 19]: decreases
- Delivery of BCAT1 to Various Tumor Types ([15]; HCT116, DLD1, HL60): Negative: HCT116, DLD1, HL60
- Delivery of BCAT1 to Various Tumor Types ([15]; LNP formulated BCAT1, tumor types of Table I (subcutaneous, orthotopic, disseminated, metastatic xenograft, PDX, GEM)): effectively deliver the nucleic acid payload to multiple tumor types
- CD8 protein levels / CD8 T-cell infiltration (immunohistochemistry) [16]: increases
- IDO1 protein levels (immunohistochemistry) [16]: did not reduce the IDO1 levels significantly; also recorded: does not significantly reduce
- β-catenin protein levels (immunohistochemistry) [16]: decreases
- CD8 protein levels / CD8 T-cell infiltration (immunohistochemistry) [17]: increases
- IDO1 protein levels (immunohistochemistry) [17]: decreased; also recorded: reduces
- β-catenin protein levels (immunohistochemistry) [17]: decreases
